Substitutions are numbered along the chain they refer to.
T1: MCSF (Homo sapiens, UniProt P09603)
T1 sequence (P09603 33-255 limits assumed): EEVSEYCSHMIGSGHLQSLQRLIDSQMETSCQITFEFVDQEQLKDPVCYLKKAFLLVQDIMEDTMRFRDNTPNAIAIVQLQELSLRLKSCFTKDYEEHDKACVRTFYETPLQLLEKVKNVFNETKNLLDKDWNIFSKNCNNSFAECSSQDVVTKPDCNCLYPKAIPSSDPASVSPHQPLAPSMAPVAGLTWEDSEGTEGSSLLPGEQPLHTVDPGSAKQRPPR

B1: MC1: MCSF-specific murine antibody MC1 (SEQ ID NOs: 12 and 13), hybridoma ATCC PTA-6263 (antibody, listed as Mus musculus)
heavy: EVKLVESGGGLVQPGGSLKLSCATSGFTFSDYYMYWVRQTPEKRLEWVAYISNGGGSTYYPDTVKGRFTISRDNAKNTLYLQMSRLKSEDTAMYYCARQGSYGYPFAYWGQGTLVTVSAAKTTAPSVYPLAPVCGDTTGSSVTLGCLVKGYFPEPVTLTWNSGSLSSGVHTFPAVLQSDLYTLSSSVTVTSSTWPSQSITCNVAHPASSTKVDKKIEPRGPTIKPCPPCKCPAPNLLGGPSVFIFPPKIKDVLMISLSPIVTCVVVDVSEDDPDVQISWFVNNVEVHTAQTQTHREDYNSTLRVVSALPIQHQDWMSGKEFKCKVNNKDLPAPIERTISKPKGSVRAPQVYVLPPPEEEMTKKQVTLTCMVTDFMPEDIYVEWTNNGKTELNYKNTEPVLDSDGSYFMYSKLRVEKKNWVERNSYSCSVVHEGLHNHHTTKSFSRTPGK
light: AIQMTQTTSSLSASLGDRVTISCSASQGISNYLNWYQQKPDGTVKLLIYYTSSLHSGVPSRFSGSGSGTDYSLTISNLEPEDIATYYCQQYSKLPWTFGGGTKLEIKRADAAPTVSIFPPSSEQLTSGGASVVCFLNNFYPKDINVKWKIDGSERQNGVLNSWTDQDSKDSTYSMSSTLTLTKDEYERHNSYTCEATHKTSTSPIVKSFNRNEC
B2: heRX1-1.G2: Human Engineered RX1: light chain Low Risk (Kabat), heavy chain Low Risk (Kabat), Gamma 2 (antibody)
heavy: DVQLQESGPGLVKPSQTLSLTCTVTDYSITSDYAWNWIRQFPGKKLEWMGYISYSGSTSYNPSLKSRITISRDTSKNQFSLQLNSVTAADTATYYCASFDYAHAMDYWGQGTTVTVSS
light: EIVLTQSPGTLSVSPGERVTFSCRASQSIGTSIHWYQQKTGQSPRLLIKYASERISGIPDRFSGSGSGTDFTLTISRVESEDFADYYCQQINSWPTTFGQGTKLEIKRT
modifications: left off: a dimerising Fc or GST
B3: heRX1-10.G2: Human Engineered RX1: light chain Low + Mod Risk (Germline), heavy chain Low + Mod Risk (Kabat), Gamma 2 (antibody)
heavy: B2 heavy with D1Q, T25S, K45G, T93V
light: DIVLTQSPAFLSVTPGEKVTFTCQASQSIGTSIHWYQQKTDQAPKLLIKYASESISGIPSRFSGSGSGTDFTLTISSVEAEDAADYYCQQINSWPTTFGGGTKLEIKRT
modifications: left off: a dimerising Fc or GST
B4: heRX1-9.G2: Human Engineered RX1: light chain Low + Mod Risk (Germline), heavy chain Low Risk (Kabat), Gamma 2 (antibody)
heavy: B2 heavy
light: B3 light
modifications: left off: a dimerising Fc or GST
B5: heRX1-2.G2: Human Engineered RX1: light chain Low Risk (Kabat), heavy chain Low + Mod Risk (Kabat), Gamma 2 (antibody)
heavy: B2 heavy with D1Q, T25S, K45G, T93V
light: B2 light
modifications: left off: a dimerising Fc or GST
B6: heRX1-4.G2: Human Engineered RX1: light chain Low + Mod Risk (Kabat), heavy chain Low + Mod Risk (Kabat), Gamma 2 (antibody)
heavy: B2 heavy with D1Q, T25S, K45G, T93V
light: B2 light with S43A, I55A, S56T
modifications: left off: a dimerising Fc or GST
B7: heRX1-3.G2: Human Engineered RX1: light chain Low + Mod Risk (Kabat), heavy chain Low Risk (Kabat), Gamma 2 (antibody)
heavy: B2 heavy
light: B2 light with S43A, I55A, S56T
modifications: left off: a dimerising Fc or GST
B8: heRX1-5.G2: Human Engineered RX1: light chain Low Risk (Kabat) − R54 to S, heavy chain Low Risk (Kabat), Gamma 2 (antibody)
heavy: B2 heavy
light: B2 light with R54S
modifications: left off: a dimerising Fc or GST
B9: heRX1-8.G2: Human Engineered RX1: light chain Low + Mod Risk (Kabat) − RAT 54, 55, 56 to SIS, heavy chain Low + Mod Risk (Kabat), Gamma 2 (antibody, V domains shown)
VH: B2 heavy with D1Q, T25S, K45G, T93V
VL: EIVLTQSPGTLSVSPGERVTFSCRASQSIGTSIHWYQQKTGQAPRLLIKYASESISGIPDRFSGSGSGTDFTLTISRVESEDFADYYCQQINSWPTTFGQGTKLEIK
B10: heRX1-7.G2: Human Engineered RX1: light chain Low + Mod Risk (Kabat) − RAT54, 55, 56 to SIS, heavy chain Low Risk (Kabat), Gamma 2 (antibody, V domains shown)
VH: B2 heavy
VL: B9 VL

Target: T1, MCSF
Test: M-NFS-60 proliferation assay, neutralizing activity (Example 1)
Assay type: cell-based
Details: 10 ng/ml M-CSF, 72 hours
Procedure: Proliferation of M-NFS-60 requires active M-CSF in a dose-dependent fashion. In the assay, M-NFS-60 cells were washed and plated in RPMI 1640 medium with 10% FBS and 3000 U/ml of M-CSF and 1% Pen/Strep. Recombinant human M-CSF (at 10 ng/ml final concentration), human or murine-specific, was incubated with various concentrations of antibodies for 1 hour at 37° C. in 5% CO2 in an incubator. Following the incubation, the mixture was added to the M-NFS-60 culture in 96 well microtiter plates. Cells were incubated at 37° C. under 5% CO2 for 72 hours before cell numbers were quantified by CellTiter Glo assay (Promega). The aforementioned assay was repeated for antibodies MC3 and MC1.

Neutralization of M-CSF activity (M-NFS-60 proliferation) | Molecule
effective inhibitors of M-CSF activity | B1

Target: T1, MCSF
Test: Biacore analysis of Human Engineered RX1 antibodies, M-CSF immobilized (Example 13)
Assay type: binding
Details: Table 10, 25° C.
Procedure: To determine the relative differences in the binding affinity of intact antibodies by Biacore analysis, M-CSF was immobilized onto CMS biosensor chip via amine coupling. 0.05 μg/ml M-CSF in 10 mM Na-Acetate pH 4.0 was injected at 1 μl/min for 5 minutes to achieve RL=6-12 RU. Test antibody or Fab fragments were flowed over the modified biosensor surface at varying concentrations ranging from 100 nM to 1.5 nM in 2-fold dilutions. Test antibodies were diluted in 0.01 M HEPES pH 7.4, 0.15 M NaCL, 3 mM EDTA, 0.005% Surfactant P20 (HBS-EP) and all experiments were done at 25° C. Each concentration point and buffer blanks were run in triplicate, and data was collected over 3 minutes of association and 8 minutes of dissociation. Kinetic and affinity constants were determined using Biaevaluation software with a 1:1 interaction model/global fit.

kd (sec-1) | Molecule
(1.37 ± 0.24) × 10^−3 sec-1 | B2
(1.1 ± 0.11) × 10^−3 sec-1 | B3

Same assay, conditions: Table 11, 25° C.

ka [M⁻¹ s⁻¹] | kd [s⁻¹] | kd (sec-1) | Molecule
200000 | 0.00144 |  | B4
218000 | 0.00165 |  | B5
238000 | 0.00108 |  | B6
201000 | 0.00118 |  | B7
175000 | 0.00129 |  | B8
152000 | 0.00148 |  | B9
157000 | 0.00149 |  | B10
 |  | (1.37 ± 0.24) × 10^−3 sec-1 | B2
 |  | (1.1 ± 0.11) × 10^−3 sec-1 | B3

Target: T1, MCSF
Test: Size of antigen-antibody complex by size exclusion chromatography or light scattering
Details: M-CSF and antibody at equal molar ratios

Size of antigen-antibody complex | Type of antigen-antibody complex formed with MCSF | Molecule
about 400 kDa | 2:1 or 2:2 complexes | B4
greater than 2×10^6 Da | large lattice aggregates | B2
about 400 kDa | 2:1 or 2:2 complexes | B3

Source: patent US11034759B2, “Humanized M-CSF specific monoclonal antibodies, kits, and uses thereof” (NOVARTIS VACCINES AND DIAGNOSTICS, INC., priority 2004, dated 2021)
